Paper PMC10350917 (Journal of Medicinal Chemistry, 2023)
“And” between values parts separate entries of the source, which are not always exact repeats. Equal entries are not always repeated.

Assays:
ADC-30 = ADC-30 (Acinetobacter baumannii, UniProt A7XM81); experiment: Inhibition kinetics (competition with nitrocefin), ADC-30; type: biochemical; settings: 100 μM nitrocefin, 3 min pre-incubation
Protocol: (§1) For inhibition kinetics, utilizing nitrocefin (NCF) as a colorimetric substrate, the inhibition constant (Ki) of MB076 and S02030 BATSI with ADCs was determined using competition kinetics as previously described.[10],[25],[28],[34] The measurements of the initial velocities were performed with the addition of 100 μM NCF after a 3 min pre-incubation of the enzyme (2 nM) with increasing concentration of the inhibitor. […] The Ki value was corrected for the NCF affinity (KM values for each ADC variant listed in Table 1) with the Cheng–Prusoff[35] equation: [drawing 2]

ADC-162 = ADC-162 (Acinetobacter baumannii, UniProt A0A2H4PPJ8); experiment: Inhibition kinetics (competition with nitrocefin), ADC-162; type: biochemical
Protocol: as §1

ADC-33 [1] = biological target: T1, ADC-33 (Acinetobacter baumannii, UniProt A7Y407); experiment: Inhibition kinetics (competition with nitrocefin), ADC-33; type: biochemical; settings: 100 μM nitrocefin, 3 min pre-incubation
Protocol: as §1

ADC variants = experiment: Inhibition kinetics, statement for all ADC variants; type: biochemical, Acinetobacter baumannii; settings: bound stated for all ADC variants of the study
Protocol: as §1

in vitro = settings: human, plasma, pH 7.4
Protocol: (§2) The in vitro stability of MB076 and S02030 was evaluated by incubating the compounds in both buffer (pH 7.4) and human plasma at 37 °C over 48 h. Half-lives (t1/2) were then calculated for each compound.
(§3) Plasma and buffer stability samples were analyzed by monitoring the disappearance of the compounds using high-performance liquid chromatography-mass spectrometry (LC–MS) techniques.
Half-lives (t1/2) were calculated in Origin using a one-phase decay model with t1/2 = ln(2)/b, where b is the slope of a linear plot of natural logarithm (ln) of the remaining compound concentration (C) versus incubation time. Each condition was tested in triplicate.

physchem = settings: buffer, pH 7.4
Protocol: as §2, §3
Standard solutions were prepared by adding the compound in DMSO (2.5 μM) to 0.1 M phosphate buffer pH 7.4 and MeOH. Solutions were vortexed, filtered, and analyzed by LC–MS (At=0). Samples were then prepared by adding a solution of the compound in DMSO (2.5 μM) to phosphate buffer pH 7.4 and incubating at 37 °C. At suitable time intervals, the reaction was stopped by the addition of MeOH. The solutions were vortexed and filtered. Degradation time courses were followed by LC–MS enabling the quantitation of compounds. Half-lives (t1/2) were calculated in Origin using a one-phase decay model with t1/2 = ln(2)/b, where b is the slope of a linear plot of natural logarithm (ln) of the remaining compound concentration (C) versus incubation time. Each condition was tested in triplicate.

ADC-7 = ADC-7 (Acinetobacter baumannii, UniProt Q6DRA1); settings: ref [10]; cited from earlier work
KPC-2 = settings: ref [14],[25]; cited from earlier work
SHV-1 = settings: ref [14],[25]; cited from earlier work
[2] = test system: ADC-7 in pBCSK(−) E. coli DH10B; experiment: Broth microdilution AST, ADC-7; type: cell-based; settings: Escherichia coli, E. coli DH10B ADC-7, MB076 fixed at 10 mg/L in combinations, FDC in iron-depleted broth
Protocol: (§4) Susceptibility testing to standard antibiotics was performed by broth microdilution or agar dilution using an Oxoid replicator according to 2021 Clinical and Laboratory Standards Institute (CLSI) guidelines. MICs for CAZ, CTX, FEP, and TOL were determined using cation-adjusted Mueller Hinton MH broth, and MICs for FDC were done in iron-depleted cation-adjusted MH broth according to CLSI methods. MB076, S02030, and VAB were used at a fixed concentration of 10 mg/L. All MICs were interpreted according to the 2021 CLSI guidelines.[43]
(§5) blaADC-7 pBCSK- was cloned and expressed in E. coli DH10B cells as previously described.[44] All other blaADC variants were synthesized by GenScript according to the blaADC-7 pBCSK- strategy, cloning into the XbaI/BamHI sites of the pBCSK- vector.

[3] = test system: ADC-30 in pBCSK(−) E. coli DH10B; experiment: Broth microdilution AST, ADC-30; type: cell-based; settings: Escherichia coli, E. coli DH10B ADC-30, MB076 fixed at 10 mg/L in combinations, FDC in iron-depleted broth
Protocol: as §4, §5

[4] = test system: ADC-33 in pBCSK(−) E. coli DH10B; experiment: Broth microdilution AST, ADC-33; type: cell-based; settings: Escherichia coli, E. coli DH10B ADC-33, MB076 fixed at 10 mg/L in combinations, FDC in iron-depleted broth
Protocol: as §4, §5

[5] = test system: ADC-212 in pBCSK(−) E. coli DH10B; experiment: Broth microdilution AST, ADC-212; type: cell-based; settings: Escherichia coli, E. coli DH10B ADC-212, MB076 fixed at 10 mg/L in combinations, FDC in iron-depleted broth
Protocol: as §4, §5

[6] = test system: ADC-219 in pBCSK(−) E. coli DH10B; experiment: Broth microdilution AST, ADC-219; type: cell-based; settings: Escherichia coli, E. coli DH10B ADC-219, MB076 fixed at 10 mg/L in combinations, FDC in iron-depleted broth
Protocol: as §4, §5

ADC-33 [7] = biological target: T1, ADC-33; settings: ADC-33; substrate
Protocol: Steady-state kinetic parameters were determined by combining pure enzyme with antibiotic substrates in 50 mM NaH2PO4, pH 7.4 at room temperature. Changes in absorbance were measured on a Cary 60 UV–Vis spectrophotometer (Agilent Technologies) and converted to velocity using the change in extinction coefficient specific to nitrocefin (ε482 = 17,400 M^–1·cm^–1), cephalothin (ε262 = 7660 M^–1·cm^–1), ceftazidime (ε260 = 8660 M^–1·cm^–1), cefotaxime (ε260 = 7500 M^–1·cm^–1), cefepime (ε260 = 750 M^–1·cm^–1), cefiderocol (ε259 = 9430 M^–1·cm^–1), and ceftolozane (ε254 = 6810 M^–1·cm^–1). Initial velocities were fit to the Michaelis–Menten equation yielding kcat and KM values. For ADC/substrate combinations in which the KM was too large to accurately determine both kcat and KM values, the initial velocities at kcat/KM values were calculated from linear fits of vo in low [S] ranges (<0.08 × KM).

[8] = test system: CC(=O)OCC1=C(C(=O)O)N2C(=O)[C@@H](NC(=O)Cc3cccs3)[C@H]2SC1; experiment: purified protein, by the assay type; settings: 50 mM NaH2PO4 pH 7.4, room temperature
[9] = test system: CC(C)(O/N=C(\C(=O)N[C@@H]1C(=O)N2C(C(=O)[O-])=C(C[N+]3(CCNC(=O)c4ccc(O)c(O)c4Cl)CCCC3)CS[C@H]12)c1csc(N)n1)C(=O)O; experiment: purified protein, by the assay type; settings: 50 mM NaH2PO4 pH 7.4, room temperature
[10] = test system: CC(C)(O/N=C(\C(=O)N[C@@H]1C(=O)N2C(C(=O)[O-])=C(C[n+]3ccccc3)CS[C@H]12)c1csc(N)n1)C(=O)O; experiment: purified protein, by the assay type; settings: 50 mM NaH2PO4 pH 7.4, room temperature
[11] = test system: CO/N=C(\C(=O)N[C@@H]1C(=O)N2C(C(=O)[O-])=C(C[N+]3(C)CCCC3)CS[C@H]12)c1csc(N)n1; experiment: purified protein, by the assay type; settings: 50 mM NaH2PO4 pH 7.4, room temperature
[12] = test system: Cn1c(N)c(NC(=O)NCCN)c[n+]1CC1=C(C(=O)O)N2C(=O)[C@@H](NC(=O)/C(=N\OC(C)(C)C(=O)[O-])c3nsc(N)n3)[C@H]2SC1; experiment: purified protein, by the assay type; settings: 50 mM NaH2PO4 pH 7.4, room temperature
[13] = test system: O=C(Cc1cccs1)N[C@@H]1C(=O)N2C(C(=O)O)=C(/C=C/c3ccc([N+](=O)[O-])cc3[N+](=O)[O-])CS[C@H]12; experiment: purified protein, by the assay type; settings: 50 mM NaH2PO4 pH 7.4, room temperature

Compound: O=C(Cc1cccs1)N[C@@H](Cn1cc(C(=O)O)nn1)B(O)O [S02030]
- Ki (ADC-30): 0.028 ± 0.002 µM
- Ki (ADC-162): 0.16 ± 0.01 µM
- Ki (ADC-33 [1]): 0.11 ± 0.004 µM
- Ki (ADC variants): < 1 µM
- half-life at 2.5 μM (in vitro): 9 h
- half-life (physchem): 8 h
- Ki (ADC-7): 0.0445 µM and 0.044 µM and 0.045 µM
- IC50 (KPC-2): 0.08 µM
- IC50 (SHV-1): 0.13 µM

Compound: CO/N=C(\C(=O)N[C@@H]1C(=O)N2C(C(=O)[O-])=C(C[N+]3(C)CCCC3)CS[C@H]12)c1csc(N)n1 [cefepime]
- MIC [2]: 0.25 mg/L
- MIC [3]: 0.25 mg/L
- MIC [4]: 0.5 mg/L
- MIC [5]: 0.5 mg/L
- MIC [6]: 0.12 mg/L

Compound: CC(C)(O/N=C(\C(=O)N[C@@H]1C(=O)N2C(C(=O)[O-])=C(C[N+]3(CCNC(=O)c4ccc(O)c(O)c4Cl)CCCC3)CS[C@H]12)c1csc(N)n1)C(=O)O [cefiderocol]
- kcat (ADC-33 [7]): 0.60 s^–1
- MIC [2]: 0.5 mg/L
- MIC [3]: 0.5 mg/L
- MIC [4]: 2 mg/L
- MIC [5]: 1 mg/L
- MIC [6]: 1 mg/L

Compound: Cn1c(N)c(NC(=O)NCCN)c[n+]1CC1=C(C(=O)O)N2C(=O)[C@@H](NC(=O)/C(=N\OC(C)(C)C(=O)[O-])c3nsc(N)n3)[C@H]2SC1 [ceftolozane]
- kcat (ADC-33 [7]): 4.23 s^–1
- MIC [2]: 8 mg/L
- MIC [3]: 8 mg/L
- MIC [4]: 256 mg/L
- MIC [5]: 256 mg/L
- MIC [6]: 128 mg/L

Compound: ADC-7 (Acinetobacter baumannii)
- Km ([8]; other: ADC-7, substrate): 204.2 ± 11.2 µM
- kcat ([8]; other: ADC-7, substrate): 659 ± 16.6 s⁻¹
- kcat/Km ([8]; other: ADC-7, substrate): 3.22e+06 ± 260000 M⁻¹ s⁻¹
- kcat/Km ([9]; other: ADC-7, substrate): < 1000 M⁻¹ s⁻¹
- kcat/Km ([10]; other: ADC-7, substrate): 2000 M⁻¹ s⁻¹
- kcat/Km ([11]; other: ADC-7, substrate): 6400 M⁻¹ s⁻¹
- kcat/Km ([12]; other: ADC-7, substrate): < 1000 M⁻¹ s⁻¹
- Km ([13]; other: ADC-7, substrate): 57.5 ± 4.6 µM
- kcat ([13]; other: ADC-7, substrate): 720 ± 18.6 s⁻¹
- kcat/Km ([13]; other: ADC-7, substrate): 1.25e+07 ± 1.33e+06 M⁻¹ s⁻¹

Compound: ADC-30 (Acinetobacter baumannii)
- Km ([8]; other: ADC-30, substrate): 174.8 ± 8.8 µM
- kcat ([8]; other: ADC-30, substrate): 763 ± 16.5 s⁻¹
- kcat/Km ([8]; other: ADC-30, substrate): 4.36e+06 ± 310000 M⁻¹ s⁻¹
- kcat/Km ([9]; other: ADC-30, substrate): < 1000 M⁻¹ s⁻¹
- kcat/Km ([10]; other: ADC-30, substrate): 3300 M⁻¹ s⁻¹
- kcat/Km ([11]; other: ADC-30, substrate): 4900 M⁻¹ s⁻¹
- kcat/Km ([12]; other: ADC-30, substrate): < 1000 M⁻¹ s⁻¹
- Km ([13]; other: ADC-30, substrate): 46.3 ± 3.7 µM
- kcat ([13]; other: ADC-30, substrate): 538 ± 12.9 s⁻¹
- kcat/Km ([13]; other: ADC-30, substrate): 1.16e+07 ± 1.21e+06 M⁻¹ s⁻¹

Compound: ADC-33 (Acinetobacter baumannii)
- Km ([8]; other: ADC-33, substrate): 95.3 ± 3.5 µM
- kcat ([8]; other: ADC-33, substrate): 347 ± 4.5 s⁻¹
- kcat/Km ([8]; other: ADC-33, substrate): 3.64e+06 ± 180000 M⁻¹ s⁻¹
- Km ([9]; other: ADC-33, substrate): 107 µM and 107.2 ± 13.8 µM
- kcat ([9]; other: ADC-33, substrate): 0.6 ± 0.0315 s⁻¹
- kcat/Km ([9]; other: ADC-33, substrate): 5600 ± 1000 M⁻¹ s⁻¹
- Km ([10]; other: ADC-33, substrate): 59.3 ± 7.80 µM
- kcat ([10]; other: ADC-33, substrate): 3.71 ± 0.088 s⁻¹
- kcat/Km ([10]; other: ADC-33, substrate): 62600 ± 9700 M⁻¹ s⁻¹
- kcat/Km ([11]; other: ADC-33, substrate): 16900 M⁻¹ s⁻¹
- Km ([12]; other: ADC-33, substrate): 219.3 ± 21.6 µM
- kcat ([12]; other: ADC-33, substrate): 4.23 ± 0.18 s⁻¹
- kcat/Km ([12]; other: ADC-33, substrate): 19300 ± 2700 M⁻¹ s⁻¹
- Km ([13]; other: ADC-33, substrate): 45.8 ± 6.07 µM
- kcat ([13]; other: ADC-33, substrate): 707 ± 28.2 s⁻¹
- kcat/Km ([13]; other: ADC-33, substrate): 1.54e+07 ± 2.66e+06 M⁻¹ s⁻¹

Compound: ADC-162 (Acinetobacter baumannii)
- Km ([8]; other: ADC-162, substrate): 382.0 ± 26.4 µM
- kcat ([8]; other: ADC-162, substrate): 656 ± 22.8 s⁻¹
- kcat/Km ([8]; other: ADC-162, substrate): 1.72e+06 ± 180000 M⁻¹ s⁻¹
- kcat/Km ([9]; other: ADC-162, substrate): < 1000 M⁻¹ s⁻¹
- kcat/Km ([10]; other: ADC-162, substrate): 3400 M⁻¹ s⁻¹
- kcat/Km ([11]; other: ADC-162, substrate): 2800 M⁻¹ s⁻¹
- kcat/Km ([12]; other: ADC-162, substrate): < 1000 M⁻¹ s⁻¹
- Km ([13]; other: ADC-162, substrate): 88.1 ± 8.06 µM
- kcat ([13]; other: ADC-162, substrate): 591 ± 20 s⁻¹
- kcat/Km ([13]; other: ADC-162, substrate): 6.71e+06 ± 840000 M⁻¹ s⁻¹
